Experimental data taken from US20240034793A1 (Bristol-Myers Squibb, published 2024).

B1: anti-PD-L1 HuMAb 3G10 (antibody, V domains shown)
VH: QVQLVQSGAEVKKPGASVKVSCKASGYTFTDYGFSWVRQAPGQGLEWMGWITAYNGNTNYAQKLQGRVTMTTDTSTSTVYMELRSLRSDDTAVYYCARDYFYGMDVWGQGTTVTVSS
VL: EIVLTQSPATLSLSPGERATLSCRASQSVSSYLVWYQQKPGQAPRLLIYDASNRATGIPARFSGSGSGTDFTLTISSLEPEDFAVYYCQQRSNWPRTFGQGTKVEIK
notes: Human mAb; used unconjugated and FITC-conjugated

Key:
[1] = molecular target: human PD-L1 (hPD-L1), Programmed Death Ligand-1, cell surface expressed (human) (UniProt Q9NZQ7); assay: IHC histoscore (0-300), FFPE Mel sample T030668
[2] = molecular target: human PD-L1 (hPD-L1), Programmed Death Ligand-1, cell surface expressed (human) (UniProt Q9NZQ7); assay: IHC histoscore (0-300), FFPE NSCLC sample 1080993B
[3] = molecular target: human PD-L1 (hPD-L1), Programmed Death Ligand-1, cell surface expressed (human) (UniProt Q9NZQ7); assay: IHC histoscore (0-300), FFPE RCC sample 1167809B
[4] = molecular target: human PD-L1 (hPD-L1), Programmed Death Ligand-1, cell surface expressed (human) (UniProt Q9NZQ7); assay: IHC histoscore (0-300), FFPE NSCLC sample 1080754B
[5] = molecular target: human PD-L1 (hPD-L1), Programmed Death Ligand-1, cell surface expressed (human) (UniProt Q9NZQ7); assay: IHC histoscore (0-300), FFPE Mel sample 1168657B
[6] = molecular target: human PD-L1 (hPD-L1), Programmed Death Ligand-1, cell surface expressed (human) (UniProt Q9NZQ7); assay: IHC histoscore (0-300), FFPE NSCLC sample 1080790
[7] = molecular target: human PD-L1 (hPD-L1), Programmed Death Ligand-1, cell surface expressed (human) (UniProt Q9NZQ7); assay: IHC histoscore (0-300), FFPE NSCLC sample 1080766B
[8] = molecular target: human PD-L1 (hPD-L1), Programmed Death Ligand-1, cell surface expressed (human) (UniProt Q9NZQ7); assay: IHC histoscore (0-300), FFPE Mel sample T980744
[9] = molecular target: human PD-L1 (hPD-L1), Programmed Death Ligand-1, cell surface expressed (human) (UniProt Q9NZQ7); assay: IHC histoscore (0-300), FFPE RCC sample 1164619B
[10] = molecular target: T1, human PD-L1 (hPD-L1), Programmed Death Ligand-1, cell surface expressed (human, UniProt Q9NZQ7 19-290); assay: competition flow cytometry on ES-2 cells: unlabelled mAb titrated, then biotin-12A4 at 0.4 ug/ml, streptavidin-PE
T1 construct: whole, on cells; In the IHC assays the cells and tissues were formalin-fixed and paraffin-embedded (FFPE); also called membranous PD-L1
Method: Anti-PD-L1 HuMAbs 5F8, 12B7, 3G10, 1B12, 13G4, 10H10, 10A5 and 12A4, and a human IgG1 (huIgG1) isotype control Ab were serially diluted from 10 μg/ml and incubated with hPD-L1-expressing ES-2 ovarian carcinoma cells for 20 minutes at 4° C. Without washing, biotinylated-12A4 Ab was added to a final concentration of 0.4 μg/ml for an additional 20 minutes at 4° C.

Chain of human PD-L1 (hPD-L1), Programmed Death Ligand-1, cell surface expressed (human) (Q9NZQ7 19-290): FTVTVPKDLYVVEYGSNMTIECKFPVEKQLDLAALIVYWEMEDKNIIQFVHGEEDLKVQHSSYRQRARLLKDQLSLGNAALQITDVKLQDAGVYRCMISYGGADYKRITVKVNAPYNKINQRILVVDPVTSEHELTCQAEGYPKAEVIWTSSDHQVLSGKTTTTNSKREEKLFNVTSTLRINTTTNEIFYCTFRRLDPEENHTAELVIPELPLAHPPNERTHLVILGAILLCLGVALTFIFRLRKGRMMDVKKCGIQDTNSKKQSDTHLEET
T1 sequence (Q9NZQ7 19-290): as above

Molecule | Histoscore Average [1] | Histoscore Average [2] | Histoscore Average [3] | Histoscore Average [4] | Histoscore Average [5] | Histoscore Average [6] | Histoscore Average [7] | Histoscore Average [8] | Histoscore Average [9] | IC50 (read off the curve) [10]
murine anti-human PD-L1 mAb 5H1 (Dong et al., 2002) (antibody) | 98 | 12 | 108 | 245 | 0 | 40 | 103 | 98 | 4 | 
B1 |  |  |  |  |  |  |  |  |  | ~1 nM
